Laboratory results reported in patent US20260317434 (published 2026).

B1: 43F5 (antibody, V domains shown)
VH: QSLEESGGRLVTPGTPLTLTCKASGFSLSNYWMSWVRQAPGKGLEWIGFITSSDNTYYASWAKGRFTISKASSTTVGLKMTSPTTEDTATYFCARDISGINSVVLWGQGTLVTVSS
VL: DVVMTQTPASVSEPVGGTVTINCQASQSIDSYLSWYQQKPGQPPKFLIYGASNLASGVPSRFKGSRSGTEYTLTISDLECADAATYYCQCTDYSINYIGAFGGGTKVVVE
B2: 48A5 (antibody, V domains shown)
VH: QEQLEESEGGLFKPTETLTLTCTVSGFSLSYDITWVRQAPGNGLEWIGTIDTSSNTYHATWAKSRSTITKNTNLNTVTLKMTSLTAADTATYFCARGGVHAYAYAPAAFDPWGPGTLVTISS
VL: APVLTQTPSPVSAAVGGTVTISCQSSQSVYNDAYLAWYQQKPGQPPKLLIYLASTLASGVPSRFSGSGSGTQFTLTISGVQCEDAATYYCQGAYYSNDWYYVFGGGTEVVVK
B3: 3G5 (antibody, V domains shown)
VH: EVQLVESGGVLVKPGGSLKLSCAASGFTFSDYAMSWVRQTPEKRLEWVATITDGGSYAYYTDDVKGRFTVSRDNARNNLFLQMSHLRSEDTGIYYCSRDRWPYYFDFWGRGTTLTVSS
VL: DIQMTQSPTSLSVSVGETVTITCRISENIYSNLAWYQQKEGKSPQLLVYAATKLADGVPSRFSGSGSGTQYSLKINSLQSEDFGNYYCQHFWTTPRTFGGGTKVEIK

Key:
[1] = target: human IL1RAP Domain1+2 (aa21-234) (human, UniProt Q9NPH3); test: ELISA
[2] = target: T1, rat IL1RAP (rat, UniProt Q63621); test: ELISA
T1 chain: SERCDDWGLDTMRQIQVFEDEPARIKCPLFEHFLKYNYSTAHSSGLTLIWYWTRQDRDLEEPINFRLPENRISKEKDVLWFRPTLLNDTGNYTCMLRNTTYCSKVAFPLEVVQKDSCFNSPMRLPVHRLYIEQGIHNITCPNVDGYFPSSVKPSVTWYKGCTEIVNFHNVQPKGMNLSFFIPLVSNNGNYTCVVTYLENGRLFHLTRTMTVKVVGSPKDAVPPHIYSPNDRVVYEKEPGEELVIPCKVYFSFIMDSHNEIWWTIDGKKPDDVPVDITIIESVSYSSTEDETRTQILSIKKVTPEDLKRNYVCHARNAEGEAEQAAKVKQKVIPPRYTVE

[3] = target: T2, mouse IL1RAP (mouse, UniProt Q61730); test: ELISA
T2 chain: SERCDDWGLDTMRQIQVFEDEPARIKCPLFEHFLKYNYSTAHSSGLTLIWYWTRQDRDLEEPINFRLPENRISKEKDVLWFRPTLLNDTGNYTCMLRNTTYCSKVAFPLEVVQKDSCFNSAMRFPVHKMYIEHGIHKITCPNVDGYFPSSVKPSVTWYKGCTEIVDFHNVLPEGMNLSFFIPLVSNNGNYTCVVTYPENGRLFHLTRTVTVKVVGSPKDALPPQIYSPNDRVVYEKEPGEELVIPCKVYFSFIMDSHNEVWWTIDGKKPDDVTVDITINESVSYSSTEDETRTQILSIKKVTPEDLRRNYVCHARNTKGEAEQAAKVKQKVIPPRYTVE

[4] = target: human IL1RAP ectodomain (aa21-367) (human, UniProt Q9NPH3); test: BLI

| binding result [1] | binding result [2] | binding result [3] | Kd [4] | Binder |
| --- | --- | --- | --- | --- |
| no binding |  |  |  | B1 |
| no binding | no binding | no binding |  | B2 |
| no binding | no binding | no binding | 0.285 nM | B3 |
